Laboratory results from patent publication US20160347808A1 (IMMATICS BIOTECHNOLOGIES, published 2016).
Square brackets hold non-standard residues; d marks the D form. Ends that are not written are not given here. pS = N[C@@H](COP(=O)(O)O)C(=O)O

B1: peptide RLLJPLSSA (SEQ ID NO 179) (peptide)
peptide: RLL[pS]PLSSA
notes: Printed with J for phosphoserine; the plain residue at position 4 is serine

Target: T1, HLA-A*02:01 (peptide-receptive MHC class I monomer from UV-ligand exchange) (human)
T1 construct: Monomers were captured on streptavidin-coated plates
Test: UV-exchange ELISA (anti-b2m); exchange yield grade: + >=10%, ++ >=20%, +++ >=50%, ++++ >=75%
Description: Candidate peptides for T cell based therapies according to the present invention were further tested for their MHC binding capacity (affinity). The individual peptide-MHC complexes were produced by UV-ligand exchange, where a UV-sensitive peptide is cleaved upon UV-irradiation, and exchanged with the peptide of interest as analyzed. Only peptide candidates that can effectively bind and stabilize the peptide-receptive MHC molecules prevent dissociation of the MHC complexes. To determine the yield of the exchange reaction, an ELISA was performed based on the detection of the light chain (β2m) of stabilized MHC complexes. The assay was performed as generally described in Rodenko et al. (Rodenko et al., 2006).
96 well MAXISorp plates (NUNC) were coated over night with 2 ug/ml streptavidin in PBS at room temperature, washed 4× and blocked for 1 h at 37° C. in 2% BSA containing blocking buffer. Refolded HLA-A*02:01/MLA-001 monomers served as standards, covering the range of 15-500 ng/ml. Peptide-MHC monomers of the UV-exchange reaction were diluted 100 fold in blocking buffer. Samples were incubated for 1 h at 37° C., washed four times, incubated with 2 ug/ml HRP conjugated anti-β2m for 1 h at 37° C., washed again and detected with TMB solution that is stopped with […]. Absorption was measured at 450 nm. Candidate peptides that show a high exchange yield (preferably higher than 50%, most preferred higher than 75%) are generally preferred for a generation and production of antibodies or fragments thereof, and/or T cell receptors or fragments thereof, as they show sufficient avidity to the MHC molecules and prevent dissociation of the MHC complexes.

Row | Binder | peptide exchange yield [%]
1 | KMLDEILLQL [peptide KMLDEILLQL (SEQ ID NO 164)] | ≥ 75
2 | VLVDQSWVL [peptide VLVDQSWVL (SEQ ID NO 16)] | 50 to 75
3 | RLLDFPEAMVL [peptide RLLDFPEAMVL (SEQ ID NO 165)] | ≥ 75
4 | GLLEARGILGL [peptide GLLEARGILGL (SEQ ID NO 166)] | 50 to 75
5 | SVIDHIHLISV [peptide SVIDHIHLISV (SEQ ID NO 167)] | 50 to 75
6 | GLIRFPLMTI [peptide GLIRFPLMTI (SEQ ID NO 168)] | 50 to 75
7 | YLAHFIEGL [peptide YLAHFIEGL (SEQ ID NO 169)] | 50 to 75
8 | ALAGGITMV [peptide ALAGGITMV (SEQ ID NO 170)] | 50 to 75
9 | RLQETEGMVAV [peptide RLQETEGMVAV (SEQ ID NO 171)] | 20 to 50
10 | LLLDTVTMQV [peptide LLLDTVTMQV (SEQ ID NO 172)] | 50 to 75
11 | KLGDLMVLL [peptide KLGDLMVLL (SEQ ID NO 173)] | 50 to 75
12 | ILLDDNMQIRL [peptide ILLDDNMQIRL (SEQ ID NO 174)] | ≥ 75
13 | ALAAARVEL [peptide ALAAARVEL (SEQ ID NO 17)] | 50 to 75
14 | TLLGGKEAQALGV [peptide TLLGGKEAQALGV (SEQ ID NO 175)] | 50 to 75
15 | RTLDKVLEV [peptide RTLDKVLEV (SEQ ID NO 176)] | 20 to 50
16 | ALLQGAIESV [peptide ALLQGAIESV (SEQ ID NO 177)] | 50 to 75
17 | YLFREPATI [peptide YLFREPATI (SEQ ID NO 178)] | 20 to 50
18 | B1 | 50 to 75
19 | NLFDLGGQYLRV [peptide NLFDLGGQYLRV (SEQ ID NO 181)] | 50 to 75
20 | SLNKWIFTV [peptide SLNKWIFTV (SEQ ID NO 182)] | ≥ 75
21 | TLQEVVTGV [peptide TLQEVVTGV (SEQ ID NO 183)] | 50 to 75
22 | SLLDENNVSSYL [peptide SLLDENNVSSYL (SEQ ID NO 184)] | 50 to 75

Row | Binder | peptide exchange yield [%]
23 | VLYTGVVRV [peptide VLYTGVVRV (SEQ ID NO 185)] | 50 to 75
24 | FLSSLKGGLL [peptide FLSSLKGGLL (SEQ ID NO 18)] | 50 to 75
25 | KMSEKILLL [peptide KMSEKILLL (SEQ ID NO 186)] | 50 to 75
26 | GLHNVVYGI [peptide GLHNVVYGI (SEQ ID NO 187)] | 50 to 75
27 | FLVDGPRVQL [peptide FLVDGPRVQL (SEQ ID NO 188)] | 50 to 75
28 | AISEVIGKITA [peptide AISEVIGKITA (SEQ ID NO 189)] | 50 to 75
29 | AMAEMVLQV [peptide AMAEMVLQV (SEQ ID NO 190)] | 50 to 75
30 | QLFSEIHNL [peptide QLFSEIHNL (SEQ ID NO 191)] | ≥ 75
31 | RLYTKLLNEA [peptide RLYTKLLNEA (SEQ ID NO 19)] | 50 to 75
32 | ALLPRYFFL [peptide ALLPRYFFL (SEQ ID NO 2)] | 20 to 50
33 | YLKDGDVML [peptide YLKDGDVML (SEQ ID NO 20)] | 50 to 75
34 | VLIDHRWVL [peptide VLIDHRWVL (SEQ ID NO 21)] | 50 to 75
35 | GLIDEVMVL (also called CYP2W1-001) [peptide GLIDEVMVL (SEQ ID NO 22)] | 50 to 75
36 | FLDANGHFV [peptide FLDANGHFV (SEQ ID NO 23)] | 50 to 75
37 | VLDGVLMEL [peptide VLDGVLMEL (SEQ ID NO 24)] | 50 to 75
38 | SLADRLIGV [peptide SLADRLIGV (SEQ ID NO 25)] | ≥ 75
39 | GLASKENFSNVSL [peptide GLASKENFSNVSL (SEQ ID NO 26)] | 20 to 50
40 | LLADEDSSYL [peptide LLADEDSSYL (SEQ ID NO 27)] | 20 to 50
41 | ALTEIQEFI [peptide ALTEIQEFI (SEQ ID NO 28)] | ≥ 75
42 | QMLDVAIRV [peptide QMLDVAIRV (SEQ ID NO 29)] | 50 to 75
43 | RLIPDTLYSV [peptide RLIPDTLYSV (SEQ ID NO 3)] | ≥ 75
44 | GLSSAYGGL [peptide GLSSAYGGL (SEQ ID NO 30)] | 10 to 20

Row | Binder | peptide exchange yield [%]
45 | LLYGKYVSV [peptide LLYGKYVSV (SEQ ID NO 31)] | 50 to 75
46 | KLNTETFGV [peptide KLNTETFGV (SEQ ID NO 32)] | 20 to 50
47 | ALWEKNTHL [peptide ALWEKNTHL (SEQ ID NO 33)] | 50 to 75
48 | ILLEKSVSV [peptide ILLEKSVSV (SEQ ID NO 34)] | 50 to 75
49 | KLLDLTVRI [peptide KLLDLTVRI (SEQ ID NO 35)] | 50 to 75
50 | GLLESPSIFNFTA [peptide GLLESPSIFNFTA (SEQ ID NO 36)] | 50 to 75
51 | GLFAGLGGAGA [peptide GLFAGLGGAGA (SEQ ID NO 37)] | 50 to 75
52 | SLAPTPVSA [peptide SLAPTPVSA (SEQ ID NO 38)] | 20 to 50
53 | ALSNVIHKV [peptide ALSNVIHKV (SEQ ID NO 40)] | 20 to 50
54 | RLAELTVDEFL [peptide RLAELTVDEFL (SEQ ID NO 4)] | 50 to 75
55 | ILDDSFKLL [peptide ILDDSFKLL (SEQ ID NO 41)] | 20 to 50
56 | SILDDSFKL [peptide SILDDSFKL (SEQ ID NO 42)] | ≥ 75
57 | TLDAAQPRV [peptide TLDAAQPRV (SEQ ID NO 43)] | 20 to 50
58 | SLESKLTSV [peptide SLESKLTSV (SEQ ID NO 44)] | 50 to 75
59 | ALAELLHGA [peptide ALAELLHGA (SEQ ID NO 45)] | 50 to 75
60 | GLDDRYSLV [peptide GLDDRYSLV (SEQ ID NO 46)] | 50 to 75
61 | KLYERCEVV [peptide KLYERCEVV (SEQ ID NO 47)] | 20 to 50
62 | FLDASDPAL [peptide FLDASDPAL (SEQ ID NO 48)] | 20 to 50
63 | TLMAEMHVV [peptide TLMAEMHVV (SEQ ID NO 50)] | 50 to 75
64 | QVWEIQHTV [peptide QVWEIQHTV (SEQ ID NO 51)] | 20 to 50
65 | WLFDDGGLTL [peptide WLFDDGGLTL (SEQ ID NO 5)] | ≥ 75
66 | ALDSSNSMQTI [peptide ALDSSNSMQTI (SEQ ID NO 52)] | 20 to 50
